Assay results published in article PMC12046049 (2025).
Blank lines part the entries; values can stand above or below the binder they belong to.

Key:
[1] = target: HSPB7ACD (α-crystallin domain, residues 78-162 of isoform 2) (human, UniProt Q9UBY9-2 78-162)
[2] = target: T1, HSPB5ACD (α-crystallin domain of HSPB5) (human)
T1 chain: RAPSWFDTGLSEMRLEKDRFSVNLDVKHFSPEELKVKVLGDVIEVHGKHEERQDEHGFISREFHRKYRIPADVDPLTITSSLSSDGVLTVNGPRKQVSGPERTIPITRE

[3] = target: HSPB1ACD (α-crystallin domain of HSPB1) (human)
Chain of HSPB1ACD (α-crystallin domain of HSPB1) (human) (chain, as listed by the source): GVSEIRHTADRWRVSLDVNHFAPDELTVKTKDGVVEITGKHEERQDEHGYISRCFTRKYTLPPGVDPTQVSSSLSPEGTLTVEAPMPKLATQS

Kd [1]: 109 µM
B1: HSPB1 C-terminal peptide (cognate peptide of HSPB1ACD) (peptide)
chain: ITIPVTFE

Kd [1]: 71 µM
Kd [2]: 23 µM
B2: HSPB5 C-terminal peptide (cognate peptide of HSPB5ACD) (peptide)
chain: ERTIPITRE
modifications: Limits are not printed. 156-164, containing the IPI motif, is taken by convention from the peptide in the HSPB5 ACD-peptide structure PDB 4M5S; check residues come from the IPI motif, not numbered in the text. Terminal chemistry not stated.

Kd [1]: 378 µM
Kd [2]: 186 µM
Kd [3]: 559 µM
B3: HSPB7 C-terminal peptide (residues 168-175, TFRTEIKI) (peptide)
peptide: TFRTEIKI
